# The DeepSol protein solubility set
# Assay: soluble on expression in E. coli; label from the status in PepcDB or PDB records
row,Sequence,soluble on expression in E. coli
1,MIKNPILRGFNPDPSICRADTDYYIATSTFEWFPGVQIHHSKDLVNWHLVAHPLNRTSLLDMKGNPNSGGIWAPDLSYHDGKFWLIYTDVKVTDGMWKDCHNYLTTCESVDGVWSDPITLNGSGFDASLFHDNDGKKYLVNMYWDQRTYNHNFYGIVLQEYSDKEKKLIGKAKIIYKGTDIKYTEGPHIYHIGDYYYLFTAEGGTTYEHSETVARSKNIDGPYEIDPEYPLLTSWHDPRNSLQKCGHASLVHTHTDEWYLAHLVGRPLPVGNQPVLEQRGYCPLGRETSIQRIEWVDNWPRVVGGKQGSVNVEAPKIPEVKWEKTYDEKDNFDSDKLNINFQSLRIPLTENIASLKAKKGNLRLYGKESLTSTFTQAFIARRWQSFKFDASTSVSFSPDTFQQAAGLTCYYNTENWSTIQVTWNEDKGRVIDIVCCDNFHFDMPLKSNVIPIPKDVEYIHLKVEVRVETYQYSYSFDGINWSKVPAIFESRKLSDDYVQGGGFFTGAFVGINCIDITGNNKPADFDYFCYKEL,soluble
2,MYELNICHLYPDLLNLYGDRGNIMALKMRCVWRGINVNVSNISIGDKFDAEAYDIIFLGGGQDYEQEIIQDDLLNQKGEEIRNAVKNDKVFLAICGGYQLLGSYYKTWDGKEIHFLNALDLWTIGGKERMIGNFVFECDFLKNDHYDGKIVGFENHSGRTYLGPGVKPLGKIIKGYGNNGEDGFEGAIYKNVYCSYSHGSLLPKNPALADHLISVALKQKYKDFVSLSGIDDEFENLAHDTTIKRIMG,soluble
3,MTTARWVIDKHLQNFHILCKFAGILKTNSFISVEDKAKLSEKLEKLDLYHRRNTGKSLDATTHKIKELSFYMFGYRDVCGQVTQKFLFSPLGNLFLKHLDNNEYIQKIFLTMLWAIPFPHPYIKTDESIQLYPMRLIFKLLSDERLDCKLFSYEYIYLISFVKSADQNSYEKLVQDILVLRTCAEVKIKHQLTAENSRSHAYVNAAHEWESYFSKTLTDAGVLQKTDGKIICRLKHGKTETYRKVTSSEFSIPKQLQEFVKKLQSAYSFSEMPLNLNDSDRLKIDVIKEIYSFYPKELLEEIGELKDEAAYELLHLPRLIEQYADNNNGTEAYLFEDVLEMGFNMFYNVEAKKIGGPGNTDLECLYITQKRKFAVEAKSTKNKLSGINSGRLEDHKNKIKAIYTIVVTPRYVPAVLSDIRNCPIVIIRANTFAEFLYNCLINRSSIPEIDYRYFDEIIIKNLGKDISSEISNLTMQQFASNTTMEAYST,not soluble
4,MISPGEAVLMDGGTTTLEVARQLAGKQLQVVTNSLPIANLLVNQPQIDLMLIGGFLFPKTGVALGKTAVESLKSVHVRRLIISVGGITEDGLYNSNMLLVETEQQMFEAAEEVIVVTDSTKFGHSALAYLCPLDRVDHIVVDDGITEEWKDVIHKAGIELTVVET,not soluble
5,MAKNHYDILRRHIRSEDLLETPEFGSGSRIVEEYWIQEPFTKAIIVENEDEFRNVYYALEPTVSSEEAEVISALYDDLKKILVLQDVSVDLEERAEVLVRAIEKLSKEYAVSFTDNFYSRMLYYLFRDFFGYGLIDPLMEDTNVEDISCDGYNIPIFIYHQKYGNVETNIVLDQEKLDRMVLRLTQRSGKHISIANPIVDATLPDGSRLQATFGTEVTPRGSSFTIRKFTIEPLTPIDLIEKGTVPSGVLAYLWLAIEHKFSAIVVGETASGKTTTLNAIMMFIPPDAKVVSIEDTREIKLYHENWIAEVTRTGMGEGEIDMYDLLRAALRQRPDYIIVGEVRGREAQTLFQAMSTGHASYSTLHAGDINQMVYRLESEPLKVPRSMLQFLDIALVQTMWVRGNTRLRRTKEVNEILGIDPVDKNLLVNQFVKWDPKEDKHIEVSMPKKLEKMADFLGVSVQEVYDEMLSRKRYLELMLKRGIRNYKEVTRYIHAYYRNPELAMTKMEEGL,soluble
6,MNRNDAYHTLISEICALSLISEPERFYESANFKISDVDFTLHYQDRDEGRAILIYGDMGALPARNRDSALLALMDINFHMFSGAHSPAFSWNAQTGRVLLMGSIGLERATAEGVLLLMKSFADLAREWREHGFMGPVGAAGAPVNMPASQATTRDTPASSGRFQ,not soluble
7,MASPSKAVIVPGNGGGDVTTHGWYGWVKKELEKIPGFQCLAKNMPDPITARESIWLPFMETELHCDEKTIIIGHSSGAIAAMRYAETHRVYAIVLVSAYTSDLGDENERASGYFTRPWQWEKIKANCPYIVQFGSTDDPFLPWKEQQEVADRLETKLHKFTDCGHFQNTEFHELITVVKSLLKVPALEHHHHHH,soluble
8,MALLAEHLLRPLPADKQIETGPFLEAVSHLPPFFDCLGSPVFTPIKADISGNITKIKAVYDTNPTKFRTLQNILEVEKEMYGAEWPKVGATLALMWLKRGLRFIQVFLQSICDGERDENHPNLIRVNATKAYEMALKKYHGWIVQKIFQAALYAAPYKSDFLKALSKGQNVTEEECLEKVRLFLVNYTATIDVIYEMYTRMNAELNYKV,soluble
9,MKEYNYIFGPIPSRRMGNSLGISSIEKRSCTYSCVYCQLGRTKNLMKEPKKFFKTEDILEEFKEYLKEDVDIDVVTVVGEGEPTLSDDLEELILGLKAITDKPVAVITNGSMLVYEKVRKALKAADIVLPSLDAGDEETFRKINRPNAKIDFNKITEALVQFSKEYNGELWMETMIVKGFNDKTEELYAIRKILDRIDYDRLYINTPVRPPAESYVEEPSKEKLDEVIRILRGTSIQMLSSGTFFSEITDDFEAIKSIISRHPMNKFEVESFLNSRKCRDKEEVLRKLKNHADIDVVSYKNYTTYRLK,not soluble
10,GPGSMYSKTPCVLGMPYEAAGAVLCNNPYRSQALSWYRKFLKAAFTVPWETDDDALYVMEESRRLFRQNARLTDVEMIQRKLREAEMRYELGVHYRIPYPRPVHKMQGSLQESGVPYAADLDSMYDHPVNPRTGRISEGSANYGVMGGVDNSNELLEGEMGADAEDFSK,soluble
11,MSLVIVAIGCTFAAIPAYRIFCEQTSFGGLTQVAKDFDKIANMKKCEDRLIRVQFNSDVPSSMRWEFKPQQHEIYVHPGETALAFYTARNPTDKPIIGISSYNLTPFQAAYYFNKIQCFCFEEQILNPGEQVDLPVFFYIDPDYVNDPALEYLDSILLSYTFFEAKSGLKLPDPFDPKNRPSIAPSPDKVPEATK,not soluble
12,MSIEIANIKKSFGRTQVLNDISLDIPSGQMVALLGPSGSGKTTLLRIIAGLEHQTSGHIRFHGTDVSRLHARDRKVGFVFQHYALFRHMTVFDNIAFGLTVLPRRERPNAAAIKAKVTKLLEMVQLAHLADRYPAQLSGGQKQRVALARALAVEPQILLLDEPFGALDAQVRKELRRWLRQLHEELKFTSVFVTHDQEEATEVADRVVVMSQGNIEQADAPDQVWREPATRFVLEFMGEVNRLQGTIRGGQFHVGAHRWPLGYTPAYQGPVDLFLRPWEVDISRRTSLDSPLPVQVLEASPKGHYTQLVVQPLGWYNEPLTVVMHGDDAPQRGERLFVGLQHARLYNGDERIETRDEELALAQSA,soluble
13,FKIETTPESRYLAQIGDSVSLTCSTTGCESPFFSWRTQIDSPLNGKVTNEGTTSTLTMNPVSFGNEHSYLCTATCESRKLEKGIQVEIYSFPKDPEIHLSGPLEAGKPITVKCSVADVYPFDRLEIDLLKGDHLMKSQEFLEDADRKSLETKSLEVTFTPVIEDIGKVLVCRAKLHIDEMDSVPTVRQAVKELQVYISPKNT,soluble
14,MGSDKIHHHHHHMGKPHRIALALQGGGVHGAFTWGVLDALLEEAATGKIEFVGVSGASSGALTATAMAYGYHEGAAQPGPASARSRRMAEAARTKIRELWETVARAAFWGGNPFVAAIGLAQDWNIDDTPAARWADVAGGNTPAAESGLGTYLTAVLRDVLPQIPAIFALPQEGTPTLIVAATDIGECRRQLFIDGAVSPDAVRASTNLPTSLHTVSIGDHHYWDGGYMGNPPLTPLVERLRETNAEDLVLVTLNPLHRDGPPPKGGRQVLDRLNEVAFNASLVHEVNAIETINRLVDADMIKEPPPGQHPYRRVNLHRIHADEEMVKLGVYSKDAPAWDFLVYLRDLGRKAFTESWETIRPALGKHSSWDTNSVCDQILARKAITTREK,not soluble
15,MDYEIENNHADSIRRGSIEVICGSMFSGKTEELLRRLRRAKIARQTVEIFKPTIDIRYDETDVVSHDKNAIASTPVDNSANILLLSSQVDVVGIDEAQFFDEGLVEVAQQLADQGVRVVIAGLDMDFRRQPFGPMPGLCAIADSVTKVHAVCVECGRLASYSFRRVQGDQQVMLGELNEYSPLCRTCYRKCSSPPQTEEIHSTI,not soluble
16,MGSDKIHHHHHHMTVAVDLPIPAKLVPVFTKENVRYRGAHGGRGSAKTRTFAMMSAVRAYQAAESGTSGVILCAREFMNSLEESSMEEVKQAIRSIPWLDDYFEIGEKYIRTKNRLVNYVFCGLRHNLDSIKSKARILLAWIDEAESVSETAWKKLRPTVRESGSEIWVTWNPEKDGSATDKRLRKKPPKSSIIVEMNYSDNPWFPDVLEEERQEDLESLDHSDYAWIWEGAYLENSEKQVLANKYKIESFPDDLWMQADRLLFGADFGFARDPSTLLRMFILDNCLYIDREAYSVGVELDHMPAFYDQVPESRKWPIKADSARPETISYLKRQGFNISAAKKWQGSVEDGITFLRGFKKIIIHPRCKETAKEARLYSYKVDRITGEVLPIIEDAHNHCWDAARYGLDGYIKGRTTVWDIM,not soluble
17,MQVQAPRRTPKIQQVVEFVESLDDNHRLKGKEDGETYLIEPNAISRIYIENRQVLAETTQGDYHLGLRLYQVLEILPAYFIKISQSEIVNLKEIERFNITPNRLVEIHLKTRKLATHHAVTSKQ,not soluble
18,MQYRRQPCSGVVKFNDAITLIDAGLHDLADRWSPGSFQQFLLTHYHMDHVQGLFPLRWGVGDPIPVYGPPDEQGCDDLFKHPGLLDFSHTVEPFVVFDLQGLQVTPLPLNHSKLTFGYLLETAHSRVAWLSDTAGLPEKTLKFLRNNQPQVMVMDCSHPPRADAPRNHCDLNTVLALNQVIRSPRVILTHISHQFDAWLMENALPSGFEVGFDGMEIGVALEHHHHHH,not soluble
19,SISPAQIAEALQGRGWDAEIVTDASMAGQLVDVRPEGILKCVDGRGSDNTRMGGPKMPGGIYAIAHNRGVTSIEGLKQITKEVASKGHLPSVHGDHSSDMLGCGFFKLWVTGRFDDMGYPRPQFDADQGANAVKDAGGIIEMHHGSHTEKVVYINLLANKTLEPNENDQRFIVDGWAADKFGLDVPKFLIAAAATVEMLGGPKNAKIVVP,soluble
20,MNVSVVIPALNEEATVADVVALSRRGSDEVIVIDSDSTDATAARAKAAGASVVNWRDVVSLPPIPGKGEALWRGVAAARGDVVVFLDADLTEISPTIVEDLARPFIDDSVMLAKAAYTRGDASGGGGRVTELTARPLLEAFFPELGFVRQPLGGEYAIRRSAALDLPFVGGYGVEVGLLIDVFRCFGAASIVEVEAGHRGHRHRPLRELAPMARVVASTILQRAGVASGLDGVGQRPAISSLESGVGKV,not soluble
21,MGSDKIHHHHHHMKLWAIYFEPEDWVGFRETRRFSFSDRVESVFPSSFPFYGAVRTALLMKNQKFDPGDVERAGDVRMFGPFVFENTPEGRKHYFPLPRNIYKTDSGYRVTPIVEIDGVYLPWKPEYKMDSKESTSGGLIELSDLELLRSNTQGVCKFDLVSAEKIFKKETHIGVAFEENRKKVKERMIYSISYYRFYDGGFFMFTDDERTVELVSKLDGVFLGMKSKWSAVEVEELNTTAFDPPDYKNVAVALITPAVFDGGGMPKDKTILGKRVLTTAGIRKQVVSGWDLRENKPKKIYHAVSPGAVYYLEGKVNGHVLNESKFTDFGFGRCIFMKYEKL,not soluble
22,MSLSDAVNKHPKSPNPQLCAVTLLGNLVATPDIRYRANPATAVTEIVLATSSKWLDKITNKYKEWTSYHHVKVEGELVELALLNANKGDIILLHGYLSNIKPKSTDKSTNHLGIVHANFVQKFEKGYTQAINQIHCSAQLTSKPKLMLTEQNKNITQANIVINQHIYNTDKQAWQTISVERAIHVWGKQAQYLAEHGDIGDELMLEGKLSYTSGVSKDQFIEVKNVHLFKGTLEHHHHHH,soluble
